Results: publication PMC6585157

Molecular target: Mycoplasma hyopneumoniae enolase (Mhp Eno, MHP168_271) (Mycoplasma hyopneumoniae)
Test: crystal structure

“Mycoplasma hyopneumoniae enolase (Mhp Eno, MHP168_271) (enzyme)” was tested, and the stoichiometry N was 8.
